Here are results for 22 molecules from patent US20230203146A1 (Boehringer Ingelheim, published 2023).

Read-outs that look alike come from different tables or passages of the source.

Test [1] deals with T1, N-terminally FLAG-tagged mouse Ang2 (HEK293T conditioned medium) (mouse, UniProt O35608 19-496).
T1 construct: may be a nucleotide entry; also called mAng2; FLAG-mAng2
T1 sequence: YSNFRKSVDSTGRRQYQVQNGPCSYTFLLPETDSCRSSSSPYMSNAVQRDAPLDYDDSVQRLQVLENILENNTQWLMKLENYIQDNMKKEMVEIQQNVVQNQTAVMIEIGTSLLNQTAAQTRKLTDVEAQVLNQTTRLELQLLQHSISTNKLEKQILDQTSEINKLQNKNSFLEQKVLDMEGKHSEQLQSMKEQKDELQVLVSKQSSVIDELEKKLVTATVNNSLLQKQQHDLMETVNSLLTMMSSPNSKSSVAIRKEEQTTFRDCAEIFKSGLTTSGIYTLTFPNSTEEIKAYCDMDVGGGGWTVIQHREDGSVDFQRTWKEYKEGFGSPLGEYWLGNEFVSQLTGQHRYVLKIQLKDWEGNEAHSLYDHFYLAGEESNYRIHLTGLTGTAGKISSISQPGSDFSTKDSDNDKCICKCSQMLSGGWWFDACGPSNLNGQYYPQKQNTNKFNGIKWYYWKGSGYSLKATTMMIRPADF
Briefly: competition ELISA, FLAG-mAng2 on coated mTie2-Fc. As to the method:
(§1) In brief, 2 μg/mL of recombinant mouse Tie2-Fc or cyno Tie2-Fc is coated overnight at 4° C. in a 96-well MaxiSorp plate (Nunc, Wiesbaden, Germany). Coated wells are blocked with a 1% casein solution.
(In an ELISA, binding on a coated surface is turned into a signal by an enzyme label.)

Test [2] addresses T2, FLAG-tagged mouse Ang2 (mouse, UniProt O35608 19-496).
T2 construct: N-terminally FLAG-tagged, conditioned medium of HEK293T cells; also called mAng2; FLAG-mAng2
T2 sequence: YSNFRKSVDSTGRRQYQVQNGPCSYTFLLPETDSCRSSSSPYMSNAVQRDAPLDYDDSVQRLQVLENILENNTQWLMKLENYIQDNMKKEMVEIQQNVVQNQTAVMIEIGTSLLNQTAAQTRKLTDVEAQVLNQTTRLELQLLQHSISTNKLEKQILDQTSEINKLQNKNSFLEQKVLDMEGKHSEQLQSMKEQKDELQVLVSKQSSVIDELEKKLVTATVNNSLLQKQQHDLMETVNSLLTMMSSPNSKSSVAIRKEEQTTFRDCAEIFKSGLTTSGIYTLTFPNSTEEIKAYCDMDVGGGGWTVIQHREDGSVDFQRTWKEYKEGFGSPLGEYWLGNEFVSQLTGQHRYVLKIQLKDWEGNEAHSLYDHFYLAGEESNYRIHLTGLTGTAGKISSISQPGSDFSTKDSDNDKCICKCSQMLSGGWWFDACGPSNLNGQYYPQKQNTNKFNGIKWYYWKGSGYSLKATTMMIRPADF
Briefly: competition ELISA: FLAG-mAng2 binding to coated mTie2-Fc. As to the method:
as §1

Test [3] has as its target T3, FLAG-tagged cynomolgus Ang2 (cynomolgus, UniProt O15123 19-496 (human entry), limits assumed).
T3 construct: N-terminally FLAG-tagged, conditioned medium of HEK293T cells; also called cAng2; FLAG-cAng2
T3 chain: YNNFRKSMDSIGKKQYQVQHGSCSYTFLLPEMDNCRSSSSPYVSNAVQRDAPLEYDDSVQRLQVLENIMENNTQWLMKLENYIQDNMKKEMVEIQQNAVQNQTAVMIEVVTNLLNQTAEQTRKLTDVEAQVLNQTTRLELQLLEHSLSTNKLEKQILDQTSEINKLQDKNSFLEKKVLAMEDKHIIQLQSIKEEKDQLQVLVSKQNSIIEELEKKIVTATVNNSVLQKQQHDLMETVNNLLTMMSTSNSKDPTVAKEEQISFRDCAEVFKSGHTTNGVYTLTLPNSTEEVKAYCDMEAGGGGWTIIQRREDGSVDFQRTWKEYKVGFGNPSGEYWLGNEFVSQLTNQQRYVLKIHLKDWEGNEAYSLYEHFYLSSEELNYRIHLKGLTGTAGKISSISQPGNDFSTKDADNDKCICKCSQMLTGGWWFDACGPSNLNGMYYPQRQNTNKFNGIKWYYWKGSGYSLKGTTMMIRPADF
In words: competition ELISA: FLAG-cAng2 binding to coated cTie2-Fc. How it is done: as §1

Test [4] concerns the target T2, FLAG-tagged mouse Ang2. Briefly: competition ELISA: FLAG-mAng2 binding to coated mTie2-Fc. How it is done: as §1
This is another data set of the same source.

The target of test [5] is T3, FLAG-tagged cynomolgus Ang2. Briefly: competition ELISA: FLAG-cAng2 binding to coated cTie2-Fc. How it is done:
as §1

B1: VHH 21G10 (VHH)
VHH: EVQLVESGGGLVQAGGSLRLSCAASGFTLDDYAIGWFRQAPGKEREGVSCISSSDGSTTYADSVKGRFTVSSDNAKNTVYLQMNSLKPEDTAVYYCAAGLRGRYYRGTYSLVCAPYEYDFWGQGTQVTVSS
notes: also called 021G10; not shown: C-terminal c-myc tag and His6 tag
For orientation: IC50 means the concentration that gives 50% inhibition. B1: the IC50 in test [1] came out at 16.8 nM.

B2: VHH 1D01 (VHH, not shown: small tags and cut ends)
VHH: EVQLVESGGGLVQAGGSLRLSCAASGFTFDDYALGWFRQAAGKEREGVSCIRCSDGSTYYADSVKGRFTISSDNAKNTVYLQMNSLKPEDTAVYYCAASIVPRSKLEPYEYDAWGQGTQVTVSS
notes: Parental llama VHH; also called 001D01
As for B2, the results for the IC50 in test [2] and in test [3] were 12.4 nM and 9.1 nM, respectively.

B3: VHH 00925 (VHH, not shown: small tags and cut ends)
VHH: DVQLVESGGGLVQPGGSLRLSCAASGFTFDDYALGWFRQAPGKEREGVSCIRCSGGSTYYADSVKGRFTISSDNSKNTVYLQMNSLRPEDTAVYYCAASIVPRSKLEPYEYDAWGQGTLVTVSS
Regarding B3, the IC50 is 28.4 nM in test [2] and 33 nM in test [3].

B4: VHH 00050 (VHH, not shown: small tags and cut ends)
VHH: EVQLVESGGGLVQPGGSLRLSCAASGFTFDDYALGWFRQAPGKEREGVSCIRCSDGSTYYADSVKGRFTISSDNSKNTVYLQMNSLRPEDTAVYYCAASIVPRSKLEPYEYDAWGQGTLVTVSS
For the molecule B4, the half-inhibitory concentration (IC50) in test [2] was found to be 18.6 nM; in test [3], 4.8 nM.

B5: VHH 00040 (VHH, not shown: small tags and cut ends)
VHH: EVQLVESGGGLVQPGGSLRLSCAASGFTFDDYALGWFRQAPGKEREGVSCIRCSDGSTYYADSVKGRFTISRDNSKNTVYLQMNSLRPEDTAVYYCAASIVPRSKLEPYEYDAWGQGTLVTVSS
Take B5: the IC50 in test [2] came to 29 nM; in test [3], 5.8 nM.

B6: VHH 00051 (VHH, not shown: small tags and cut ends)
VHH: EVQLVESGGGLVQPGGSLRLSCAASGFTFDDYALGWFRQAAGKEREGVSCIRCSGGSTYYADSVKGRFTISSDNSKNTVYLQMNSLRPEDTAVYYCAASIVPRSKLEPYEYDAWGQGTLVTVSS
For the molecule B6, the values for the IC50 in test [2] and in test [3] were 37.9 nM and 15 nM, respectively.

B7: VHH 00049 (VHH, not shown: small tags and cut ends)
VHH: EVQLVESGGGLVQPGGSLRLSCAASGFTFDDYALGWFRQAAGKEREGVSCIRCSDGSTYYADSVKGRFTISSDNSKNTVYLQMNSLRPEDTAVYYCAASIVPRSKLEPYEYDAWGQGTLVTVSS
Regarding B7, the IC50 in test [2] amounted to 20.3 nM; in test [3] it was 4.5 nM.

B8: VHH 00039 (VHH, not shown: small tags and cut ends)
VHH: EVQLVESGGGLVQPGGSLRLSCAASGFTFDDYALGWFRQAAGKEREGVSCIRCSDGSTYYADSVKGRFTISRDNSKNTVYLQMNSLRPEDTAVYYCAASIVPRSKLEPYEYDAWGQGTLVTVSS
For B8, the IC50 in test [2] is 28.1 nM; in test [3] it was 6.4 nM.

B9: VHH 00025 (VHH, not shown: small tags and cut ends)
VHH: EVQLVESGGGLVQAGGSLRLSCAASGFTLDDYAIGWFRQAPGKEREGVSTIRDSDGSTYYADSVKGRFTISSDNDKNTVYLQMNSLKPEDTAVYYCAAVPAGRLRFGEQWYPLYEYDAWGQGTLVTVSS
On to B9, for which the IC50 stood at 4.9 nM in test [4] and 1.7 nM in test [3].

B10: VHH 00055 (VHH, not shown: small tags and cut ends)
VHH: EVQLVESGGGLVQAGGSLRLSCAASGFTLDDYAIGWFRQAPGKEREGVSSIRDNGGSTYYADSVKGRFTISSDNDKNTVYLQMNSLKPEDTAVYYCAAVPAGRLRFGEQWYPLYEYDAWGQGTLVTVSS
For the molecule B10, the half-maximal inhibitory concentration (IC50) in test [4] amounted to 4.6 nM; in test [3], 2 nM.

B11: VHH 00936 (VHH, not shown: small tags and cut ends)
VHH: EVQLVESGGGLVQPGGSLRLSCAVSGITLDDYAIGWFRQAPGKEREGVSAIRDNGGSTYYADSVKGRFTISSDNSKNTVYLQMNSLRPEDTAVYYCAAVPAGRLRYGEQWYPIYEYDAWGQGTLVTVSS
notes: Cycle 3 variant of 28D10 on the 00908 backbone
The molecule B11 came in with an IC50 in test [5] of 0.06 nM.

B12: VHH 00054 (VHH, not shown: small tags and cut ends)
VHH: EVQLVESGGGLVQPGGSLRLSCAASGFTLDDYAIGWFRQAPGKEREGVSSIRDNDGSTYYADSVKGRFTISRDNSKNTVYLQMNSLRPEDTAVYYCAAVPAGRLRFGEQWYPLYEYDAWGQGTLVTVSS
Consider B12, for which the IC50 in test [4] stood at 22.9 nM; in test [3], 11.7 nM.

B13: VHH 00052 (VHH, not shown: small tags and cut ends)
VHH: EVQLVESGGGLVQPGGSLRLSCAASGFTLDDYAIGWFRQAPGKEREGVSSIRDNDGSTYYADSVKGRFTISSDNDKNTVYLQMNSLRPEDTAVYYCAAVPAGRLRFGEQWYPLYEYDAWGQGTLVTVSS
For B13, the figures for the concentration for half-maximal inhibition (IC50) in test [4] and in test [3] were 2.1 nM and 0.8 nM, respectively.

B14: VHH 00048 (VHH, not shown: small tags and cut ends)
VHH: EVQLVESGGGLVQAGGSLRLSCAASGFTLDDYAIGWFRQAPGKEREGVSSIRDSDGSTYYADSVKGRFTISSDNDKNTVYLQMNSLKPEDTAVYYCAAVPAGRLRFGEQWYPLYEYDAWGQGTLVTVSS
For the molecule B14, the 50% inhibitory concentration (IC50) in test [4] came out at 2.1 nM; in test [3], 1 nM.

B15: VHH 00043 (VHH, not shown: small tags and cut ends)
VHH: EVQLVESGGGLVQPGGSLRLSCAASGFTLDDYAIGWFRQAPGKEREGVSSIRDNDGSTYYADSVKGRFTISRDNAKNTVYLQMNSLRPEDTAVYYCAAVPAGRLRFGEQWYPLYEYDAWGQGTLVTVSS
In the case of B15, the IC50 in test [4] worked out at 29.2 nM; in test [3], 12.6 nM.

B16: VHH 00041 (VHH, not shown: small tags and cut ends)
VHH: EVQLVESGGGLVQPGGSLRLSCAASGFTLDDYAIGWFRQAPGKEREGVSSIRDNDGSTYYADSVKGRFTISSDNAKNTVYLQMNSLRPEDTAVYYCAAVPAGRLRFGEQWYPLYEYDAWGQGTLVTVSS
With B16, the concentration for half-maximal inhibition (IC50) in test [4] is 1.7 nM; in test [3], 0.9 nM.

B17: VHH 00934 (VHH, not shown: small tags and cut ends)
VHH: EVQLVESGGGLVQPGGSLRLSCAASGITLDDYAIGWFRQAPGKEREGVSAIRESGGSTYYADSVKGRFTISSDNSKNTVYLQMNSLRPEDTAVYYCAAVPAGRLRYGEQWYPIYEYDAWGQGTLVTVSS
notes: as for B11
With B17, in test [5], the IC50 stood at 0.071 nM.

B18: VHH 00026 (VHH, not shown: small tags and cut ends)
VHH: EVQLVESGGGLVQAGGSLRLSCAASGFTLDDYAIGWFRQAPGKEREGVSAIRDSDGSTYYADSVKGRFTISSDNDKNTVYLQMNSLKPEDTAVYYCAAVPAGRLRFGEQWYPLYEYDAWGQGTLVTVSS
B18: the IC50 amounted to 2.6 nM in test [4] and 1.1 nM in test [3].

B19: VHH 00053 (VHH, not shown: small tags and cut ends)
VHH: EVQLVESGGGLVQPGGSLRLSCAASGFTLDDYAIGWFRQAPGKEREGVSSIRDNDGSTYYADSVKGRFTISRDNDKNTVYLQMNSLRPEDTAVYYCAAVPAGRLRFGEQWYPLYEYDAWGQGTLVTVSS
B19: the figures for the half-inhibitory concentration (IC50) in test [4] and in test [3] were 36.7 nM and 13.8 nM, respectively.

B20: VHH 00044 (VHH, not shown: small tags and cut ends)
VHH: EVQLVESGGGLVQPGGSLRLSCAASGFALDYYAIGWFRQAPGKEREGVSCISSSDGITYYVDSVKGRFTISRDNSKNTVYLQMNSLRPEDTAVYYCATDSGGYIDYDCMGLGYDYWGQGTLVTVSS
Regarding B20, the half-maximal inhibitory concentration (IC50) was determined as 0.091 nM in test [2] and 0.13 nM in test [3].

B21: VHH 00045 (VHH, not shown: small tags and cut ends)
VHH: EVQLVESGGGLVQPGGSLRLSCAASGFALDYYAIGWFRQAPGKEREGVSCISSSDGITYYADSVKGRFTISRDNSKNTVYLQMNSLRPEDTAVYYCATDSGGYIDYDCMGLGYDYWGQGTLVTVSS
For the molecule B21, the half-maximal inhibitory concentration (IC50) worked out at 0.11 nM in test [2] and 0.16 nM in test [3].

B22: VHH 00046 (VHH, not shown: small tags and cut ends)
VHH: EVQLVESGGGLVQPGGSLRLSCAASGFALDYYAIGWFRQAPGKEREGVSCISSSGGITYYVDSVKGRFTISRDNSKNTVYLQMNSLRPEDTAVYYCATDSGGYIDYDCMGLGYDYWGQGTLVTVSS
Regarding B22, the half-inhibitory concentration (IC50) came to 0.083 nM in test [2] and 0.16 nM in test [3].
